Results on 14 substances are retold here after publication PMC7430637.

For assay [1], the target named is recombinant mUHRF1 V1 (mouse) (UniProt Q8VDF2). The assay can be described thus: MST; 50 nM 6× His-tagged protein labelled with RED-tris-NTA dye, peptide titrated; 20 mM HEPES–NaOH pH 7.9, 150 mM NaCl, 0.05% Tween-20; room temperature; also with 100-fold molar excess of 16:0 PI5P (Figure 3D).
In assay [2] the target is recombinant hUHRF1 (human) (UniProt Q96T88). Described as above.
Assay [3] deals with FAM-H3(1-15)K9me3 peptide (N-terminally fluorescein-labelled). The assay can be described thus: fluorescence polarisation; FAM-labelled H3(1-15) peptide, recombinant protein titrated; RT; as described (ref. 28). (In general: Fluorescence polarisation rises when a labelled molecule tumbles more slowly, as on binding a larger partner.)
In assay [4] the target is H3(1-15)K9me3-FAM peptide (C-terminally fluorescein-labelled). The assay is described as above.
For assay [5], the target named is human UHRF1 (hUHRF1), full-length, wild type (human) (UniProt Q96T88). The assay can be described thus: MST; 50 nM His-tag-labelled (RED-tris-NTA) UHRF1 protein, H3 peptide titrated; 20 mM HEPES-NaOH pH 7.9, 150 mM NaCl, 0.05% Tween-20; room temperature; Monolith NT.115.
human UHRF1 (hUHRF1), full-length, wild type (human), sequence (Q96T88 whole entry): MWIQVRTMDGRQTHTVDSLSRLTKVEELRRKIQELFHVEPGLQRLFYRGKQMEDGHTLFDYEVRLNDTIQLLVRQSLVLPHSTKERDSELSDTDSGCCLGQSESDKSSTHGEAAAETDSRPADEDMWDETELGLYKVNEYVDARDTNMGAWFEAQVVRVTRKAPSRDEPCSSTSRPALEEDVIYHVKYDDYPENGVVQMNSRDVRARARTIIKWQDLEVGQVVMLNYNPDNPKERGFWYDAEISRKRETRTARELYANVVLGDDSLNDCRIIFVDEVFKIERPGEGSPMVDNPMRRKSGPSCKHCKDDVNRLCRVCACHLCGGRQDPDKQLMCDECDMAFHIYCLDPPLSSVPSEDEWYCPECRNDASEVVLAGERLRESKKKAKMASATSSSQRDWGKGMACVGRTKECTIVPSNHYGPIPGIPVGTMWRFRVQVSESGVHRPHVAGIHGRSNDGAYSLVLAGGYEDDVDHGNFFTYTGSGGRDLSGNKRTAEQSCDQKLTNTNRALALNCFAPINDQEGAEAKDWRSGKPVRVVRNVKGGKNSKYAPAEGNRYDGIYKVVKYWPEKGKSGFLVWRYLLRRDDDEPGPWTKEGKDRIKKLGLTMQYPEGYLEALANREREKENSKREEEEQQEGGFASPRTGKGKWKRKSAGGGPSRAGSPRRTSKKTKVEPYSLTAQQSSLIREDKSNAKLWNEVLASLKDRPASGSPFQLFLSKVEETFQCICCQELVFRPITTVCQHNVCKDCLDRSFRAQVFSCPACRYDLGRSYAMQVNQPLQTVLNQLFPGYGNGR
The target of assay [6] is mUHRF1 V1 P-patch/R* (P293A/P294A/P295A/L297A/R298A), full-length (mouse) (UniProt Q8VDF2). The description is as above.
mUHRF1 V1 P-patch/R* (P293A/P294A/P295A/L297A/R298A), full-length (mouse), sequence (Q8VDF2 whole entry P293A/P294A/P295A/L297A/R298A): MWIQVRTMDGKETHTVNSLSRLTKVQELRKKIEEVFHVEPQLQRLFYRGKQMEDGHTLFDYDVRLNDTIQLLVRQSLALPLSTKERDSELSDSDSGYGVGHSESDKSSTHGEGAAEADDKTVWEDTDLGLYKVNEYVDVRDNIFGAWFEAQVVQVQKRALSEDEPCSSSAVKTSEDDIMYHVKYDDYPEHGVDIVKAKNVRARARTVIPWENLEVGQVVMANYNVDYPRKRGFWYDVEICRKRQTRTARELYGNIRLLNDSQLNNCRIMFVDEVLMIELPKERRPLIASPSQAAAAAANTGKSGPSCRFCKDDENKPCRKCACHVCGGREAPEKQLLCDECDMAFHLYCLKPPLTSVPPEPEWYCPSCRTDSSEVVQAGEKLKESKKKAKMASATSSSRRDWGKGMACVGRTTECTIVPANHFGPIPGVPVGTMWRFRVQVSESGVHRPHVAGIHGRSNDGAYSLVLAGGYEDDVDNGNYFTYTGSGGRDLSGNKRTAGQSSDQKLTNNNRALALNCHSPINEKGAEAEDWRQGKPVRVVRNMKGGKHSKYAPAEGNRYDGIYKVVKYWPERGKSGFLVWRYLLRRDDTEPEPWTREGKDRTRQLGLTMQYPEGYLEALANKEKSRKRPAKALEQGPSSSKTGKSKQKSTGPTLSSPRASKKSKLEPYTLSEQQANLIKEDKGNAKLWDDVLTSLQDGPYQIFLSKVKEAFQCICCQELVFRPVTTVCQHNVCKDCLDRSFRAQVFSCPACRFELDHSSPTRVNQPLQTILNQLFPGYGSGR
For assay [7], the target named is murine UHRF1 splicing variant 2 (mUHRF1 V2), full-length, wild type (mouse). The description is as above.
For assay [8], the target named is mUHRF1 V1 R298* (R298A), full-length (mouse) (UniProt Q8VDF2). Described as above.
mUHRF1 V1 R298* (R298A), full-length (mouse), sequence (Q8VDF2 whole entry R298A): as the sequence (Q8VDF2 whole entry P293A/P294A/P295A/L297A/R298A) above, with A293P, A294P, A295P, A297L counted along it
The target of assay [9] is murine UHRF1 splicing variant 1 (mUHRF1 V1), full-length, wild type (mouse) (UniProt Q8VDF2). The description is as above.
murine UHRF1 splicing variant 1 (mUHRF1 V1), full-length, wild type (mouse), sequence (Q8VDF2 whole entry, stated change not applied): as the sequence (Q8VDF2 whole entry P293A/P294A/P295A/L297A/R298A) above, with A293P, A294P, A295P, A297L, A298R counted along it
Assay [10] concerns the target mUHRF1 V1 R-S* (R298A/N299A/T300A/G301A/K302A/S303A), full-length (mouse) (UniProt Q8VDF2). The description is as above.
Assay [11] concerns the target H3(1-15)unmodified-FAM peptide (C-terminally fluorescein-labelled). The assay can be described thus: fluorescence polarisation; FAM-labelled H3(1-15) peptide, recombinant protein titrated; RT; as described (ref. 28).
Assay [12] concerns the target H3(1–15)K9me3-FAM peptide. The assay can be described thus: fluorescence polarisation; FAM-labelled H3(1–15) peptide, recombinant protein titrated; room temperature; as described in ref. 28.
Assay [13] deals with FAM-H3(1–15)K9me3 peptide. The description is as above.
The target in assay [14] is H3(1–15)unmodified-FAM peptide. The description is as above.

mUHRF1 V1 R-S* (R298A/N299A/T300A/G301A/K302A/S303A), full-length (mouse), sequence (Q8VDF2 whole entry R298A/N299A/T300A/G301A/K302A/S303A): as the sequence (Q8VDF2 whole entry P293A/P294A/P295A/L297A/R298A) above, with A293P, A294P, A295P, A297L, N299A, T300A, G301A, K302A, S303A counted along it
recombinant mUHRF1 V1 (mouse), sequence (Q8VDF2 whole entry): as the sequence (Q8VDF2 whole entry P293A/P294A/P295A/L297A/R298A) above, with A293P, A294P, A295P, A297L, A298R counted along it
recombinant hUHRF1 (human), sequence (Q96T88 whole entry): as the sequence (Q96T88 whole entry) above

Regarding H3R2me2sK9me3 peptide (titrated in MST), the fold reduction of binding against the H3K9me3 peptide in assay [1] is 20 fold. For the same substance, the fold weaker affinity against the H3K9me3 peptide in assay [2] was found to be 10 fold.

A word on the Kd: it is the free concentration of one partner at which half of the binding sites on the other are occupied at equilibrium, for simple one-to-one binding. Take “isolated tandem tudor domain of murine UHRF1 (mTTD) (from UniProt Q8VDF2 1-782) (domain or fragment)”: the Kd is 3.4 µM in assay [3] and 2.7 µM in assay [4].

For the substance “histone H3 N-terminal tail peptide, unmodified (MST)”, the Kd in [5] was determined as 2.5 µM; in assay [6], 4.1 µM; in assay [7] it was 5.8 µM; in [8] it was 4.6 µM; in assay [9], 5.3 µM; in assay [10], 5.1 µM.

As for “human UHRF1 (hUHRF1), full-length, wild type (from UniProt Q96T88-1 1-793) (natural protein)”, the values for the Kd in [4] and in assay [11] were 7.7 µM and 15 µM, respectively.

Take “murine UHRF1 splicing variant 1 (mUHRF1 V1), full-length, wild type (from UniProt Q8VDF2 1-782) (natural protein)”: the equilibrium dissociation constant (Kd) is 6.4 µM in assay [4] and 12.7 µM in assay [11].

With “mTTD-PHD V1 TTD* (Y184A/Y187A, aromatic cage mutant) (from UniProt Q8VDF2-1 122-380) (domain or fragment)”, the dissociation constant (Kd) in assay [4] was 21.4 µM; in assay [11] it was 19.5 µM.

For “murine UHRF1 splicing variant 2 (mUHRF1 V2), full-length, wild type (natural protein)”, the Kd in assay [3] is more than 50 µM; in [4] it was 19.8 µM; in [11], 14.8 µM.

“mTTD-PHD V2 module (mUHRF1 V2 122-372) (domain or fragment)”: the Kd in assay [4] is 14.4 µM; in assay [11] it was 10.5 µM.

Regarding mTTD-PHD V1 (domain or fragment), the Kd in assay [12] was 4.9 µM; in assay [13], more than 300 µM; in assay [14] it was 14.3 µM.

As for “histone H3 N-terminal tail peptide, R2 symmetrically dimethylated and K9 trimethylated (MST)”, the figures for the Kd in [5], in assay [7] and in [9] were 16 µM, 14 µM and 28 µM, respectively.

In the case of “histone H3 N-terminal tail peptide, K9 trimethylated (MST)”, the Kd in assay [5] was 1.5 µM; in assay [6], 6.3 µM; in [7] it was 4.5 µM; in assay [8], 6.7 µM; in assay [9], 1.4 µM; in [10] it was 6.2 µM.

As to “isolated tandem tudor domain of human UHRF1 (hTTD) (from UniProt Q96T88 1-793) (domain or fragment)”, the figures for the Kd in [3] and in [4] were 6.3 µM and 4.9 µM, respectively.

Turning to “hTTD-PHD module of human UHRF1, wild type (from UniProt Q96T88 1-793) (domain or fragment)”, the dissociation constant Kd in assay [4] was found to be 2.6 µM; in assay [11] it was 2.4 µM.

Regarding mTTD-PHD V2 (domain or fragment), the equilibrium dissociation constant (Kd) in assay [13] worked out at 12.3 µM.
